Measurements as given in the Human Domainome abundance scans (Beltran et al. 2025).
± gives the uncertainty stated by the source.

B1: Zinc finger MYM-type protein 3, residues 405 to 444; numbered along this chain, Q14202 (parent)
chain: DATRCSICQKTGEVLHEVSNGSVVHRLCSDSCFSKFRANK

Variants of: B1
Assay: abundance fitness (aPCA) (normalised: wild type 0, dead -1); higher = more abundant; growth selection in yeast, the domain comes from the species named
Details: Homo sapiens

DATRLSICQKTGEVLHEVSNGSVVHRLCSDSCFSKFRANK and DATRFSICQKTGEVLHEVSNGSVVHRLCSDSCFSKFRANK are within error of each other in abundance fitness: -0.835 ± 0.08 for the first, -0.776 ± 0.14 for the second.

Going from DATRCSIMQKTGEVLHEVSNGSVVHRLCSDSCFSKFRANK to DATRCSIYQKTGEVLHEVSNGSVVHRLCSDSCFSKFRANK, the abundance fitness rises from -1.21 ± 0.11 to -0.774 ± 0.15.

Compared with DATRCSIFQKTGEVLHEVSNGSVVHRLCSDSCFSKFRANK, DWTRCSICQKTGEVLHEVSNGSVVHRLCSDSCFSKFRANK is higher in abundance fitness: -0.754 ± 0.13 for the first, -0.204 ± 0.08 for the second.

First: DVTRCSICQKTGEVLHEVSNGSVVHRLCSDSCFSKFRANK
Second: DATRCSICQKTGEVLHEVSNGSVVHRLCTDSCFSKFRANK
The abundance fitness of the first is higher: -0.603 ± 0.068 for the first, -0.771 ± 0.1 for the second.

First: DATRCSICQKTGEVLHEVSNGSVVHRLCGDSCFSKFRANK
Second: DATRCSICQKTGEVLHEVSNGSVVHRLCYDSCFSKFRANK
The abundance fitness of the first is higher: -0.277 ± 0.054 for the first, -0.936 ± 0.24 for the second.

DATRCSICQKTGEVLHEVSNGSVVHRLCMDSCFSKFRANK and DATRCSICQKTGEVLHEVSNGSVVHRLCLDSCFSKFRANK are within error of each other in abundance fitness: -0.622 ± 0.086 for the first, -0.755 ± 0.067 for the second.

DATRCSICQKTGEVLHEVSNGSVVHRLCWDSCFSKFRANK and DATRCSICQKTGEVLHEVSNGSVVHRLCHDSCFSKFRANK are within error of each other in abundance fitness: -0.669 ± 0.07 for the first, -0.683 ± 0.16 for the second.

First: DATRCSICQKTGEVLHEVSFGSVVHRLCSDSCFSKFRANK
Second: DATRCSICQKTGEVLHEVSRGSVVHRLCSDSCFSKFRANK
The abundance fitness of the first is lower: -0.431 ± 0.1 for the first, -0.135 ± 0.057 for the second.

Going from DATRCSICQKTGEVLHEVSDGSVVHRLCSDSCFSKFRANK to DATRCSICQKTGEVLHEVSAGSVVHRLCSDSCFSKFRANK, the abundance fitness falls from 0.153 ± 0.079 to -0.068 ± 0.056.

Going from DATRCSICQKTGEVLHEVSWGSVVHRLCSDSCFSKFRANK to DATRCSICQKTGEVLHEVSNGSVVHRLCSDSCKSKFRANK, the abundance fitness rises from -0.415 ± 0.073 to 0.03 ± 0.067.

DATRCSICQKTGEVLHEVSNGSVVHRLCSDSCNSKFRANK and DATRCSICQKTGEVLHEVSNGSVVHRLCSDSCESKFRANK are within error of each other in abundance fitness: 0.01 ± 0.15 for the first, 0.175 ± 0.077 for the second.

DATRCSICQKTGEVRHEVSNGSVVHRLCSDSCFSKFRANK and DATRCSICQKTGEVQHEVSNGSVVHRLCSDSCFSKFRANK are within error of each other in abundance fitness: 0.07 ± 0.052 for the first, 0.102 ± 0.059 for the second.

DATRCSICQKTGEVVHEVSNGSVVHRLCSDSCFSKFRANK and DATRCSICQKTGEVFHEVSNGSVVHRLCSDSCFSKFRANK are within error of each other in abundance fitness: -0.034 ± 0.055 for the first, -0.092 ± 0.13 for the second.

DATRCSICQKTGEVLHEVSNGSVVHRLCSDSCFSKTRANK and DATRCSICQKTGEVLHEVSNGSVVHRLCSDSCFSKGRANK are within error of each other in abundance fitness: -0.176 ± 0.07 for the first, -0.206 ± 0.051 for the second.

DATRCSICQKTGEVLHEVSNGSVVHRLCSDSCFSKVRANK and DATRCSICQKTGEVLHEVSNGSVVHRLCSDSCFSKDRANK are within error of each other in abundance fitness: -0.085 ± 0.066 for the first, -0.082 ± 0.084 for the second.

DATRCSICQKTGEVLHEVSNGSVVHRLCSDSCFSKARANK and DATRCSICFKTGEVLHEVSNGSVVHRLCSDSCFSKFRANK are within error of each other in abundance fitness: 0.042 ± 0.056 for the first, -0.087 ± 0.075 for the second.

Going from DATRCSICVKTGEVLHEVSNGSVVHRLCSDSCFSKFRANK to DATRCSICAKTGEVLHEVSNGSVVHRLCSDSCFSKFRANK, the abundance fitness rises from -0.803 ± 0.063 to -0.585 ± 0.072.

First: DATRCSICQKTGEVLHEVSNGSVLHRLCSDSCFSKFRANK
Second: DATRCSICQKTGEVLHEVSNGSVWHRLCSDSCFSKFRANK
The abundance fitness of the first is higher: -0.077 ± 0.051 for the first, -0.292 ± 0.066 for the second.

DATRCSICQKTGEVLHEVSNGSVVHRLCSDSCFSKFRQNK and DATRCSICQKTGEVLHEVSNGSVVHRLCSDSCFSKFRYNK are within error of each other in abundance fitness: -0.072 ± 0.064 for the first, -0.338 ± 0.36 for the second.

DATRCSICQKTGEVLHEVSNGSVVHRLCSDSCFSKFRMNK and DATRCSICQKTGEVLHEVSNGSVVHRLCSDSCFWKFRANK are within error of each other in abundance fitness: -0.033 ± 0.094 for the first, -0.187 ± 0.075 for the second.

Compared with DATRCSICQKTGEVLHEVSNGSVVHRLCSDSCFYKFRANK, DATRCSICQKTGEVLHEVSNGSVVHRLCSDSCFGKFRANK is higher in abundance fitness: -1.01 ± 0.24 for the first, 0.137 ± 0.053 for the second.

DATRCSICQKTGEVLHEVSNGSVVHRLCSDSCFSKFRAIK and DATRCSICQKTGEVLHEVSNGSVVHRLCSDSCFSKFRARK are within error of each other in abundance fitness: -0.022 ± 0.089 for the first, 0.081 ± 0.055 for the second.

First: DATRCSICQKTGEVLHEVSNGSVVHRLCSDSCFSKFRACK
Second: DATRCSICQKTGEVLHEVSNGSVVHRLCSDSCFSKFRASK
The abundance fitness of the first is lower: -0.319 ± 0.11 for the first, 0.003 ± 0.067 for the second.

First: DATRCSICQKAGEVLHEVSNGSVVHRLCSDSCFSKFRANK
Second: DATRCSICQKTGEVLHKVSNGSVVHRLCSDSCFSKFRANK
The abundance fitness of the first is lower: -0.27 ± 0.06 for the first, -0.073 ± 0.06 for the second.

Compared with DATRCSCCQKTGEVLHEVSNGSVVHRLCSDSCFSKFRANK, DATRCSTCQKTGEVLHEVSNGSVVHRLCSDSCFSKFRANK is higher in abundance fitness: -0.463 ± 0.092 for the first, -0.218 ± 0.077 for the second.

Going from DATRCSVCQKTGEVLHEVSNGSVVHRLCSDSCFSKFRANK to DATRCSICQKTGEVLHEVSNGSVVHRLVSDSCFSKFRANK, the abundance fitness falls from -0.037 ± 0.054 to -0.808 ± 0.063.

DATRCSICQKTGEVLHEVSNGSVVHRLCSLSCFSKFRANK and DATRCSICQKTGEVLHEVSNGSVVHRLCSNSCFSKFRANK are within error of each other in abundance fitness: -0.398 ± 0.057 for the first, -0.721 ± 0.31 for the second.

DATRCSICQKTGEVLHEVSNGSVVHRLCSPSCFSKFRANK and DATRCSICQKTGEVLHEVSNGSVVHRLCSVSCFSKFRANK are within error of each other in abundance fitness: -0.371 ± 0.1 for the first, -0.384 ± 0.062 for the second.

First: DATRCSICQKTGEVLHEASNGSVVHRLCSDSCFSKFRANK
Second: DATRCSICQKTGEVLHERSNGSVVHRLCSDSCFSKFRANK
The abundance fitness of the first is higher: -0.183 ± 0.055 for the first, -0.334 ± 0.055 for the second.

First: DATRCSICQKTGEVLHEHSNGSVVHRLCSDSCFSKFRANK
Second: DATRCSICQKTGEVLHEVSNGSVVHRLCSDSCFSKFRANS
The abundance fitness of the first is lower: -0.209 ± 0.1 for the first, 0.119 ± 0.086 for the second.

DATRCSICQKTGEVLHEVSNGSVVHRLCSDSCFSKFRANF and DATRCSICQKTGEVLHEVSNGSVVHRLCSDSCFSKFRANV are within error of each other in abundance fitness: -0.128 ± 0.15 for the first, 0.112 ± 0.1 for the second.
